{"source": "paper PMC7761469", "biological_target": "epidermal growth factor receptor (EGFR) (human (endogenous in LNCaP, DU145 and PC-3)) (UniProt P00533)", "experiment": "flow cytometry on cells", "data": [{"substance": "targeted toxin EGF-PE40", "values": [{"measurement": "fold reduction of binding compared to EGF", "value": "28.6 to 76.1", "unit": "fold"}]}]}
